B1: C8orf76 (parent)
chain: YCAKLCEPQWFYEETESSDDVEVL

Variants of: B1
Assay: protein stability index of a GFP-peptide fusion (GPS, HEK-293T) (PSI 1-6); higher = more stable
Details: c terminus: a fixed tail appended
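Also: lentivirally expressed fusions sorted by FACS into six bins by GFP to DsRed ratio, PSI derived from sequencing read proportions per bin multiplied by bin number.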

| Variant | protein stability index |
| --- | --- |
| E13M | 2.13 |
| E13L | 2.12 |
| E13K | 1.42 |
| E13Y | 1.55 |
| E13T | 2.1 |
| E13S | 2.51 |
| E13Q | 1.65 |
| E13H | 1.91 |
| E13V | 1.57 |
| E13F | 2.16 |
| E13A | 2.11 |
| E16Q | 1.54 |
| E16T | 2.22 |
| E16S | 1.74 |
| E16C | 1.58 |
| E16N | 1.89 |
| E16W | 1.65 |
| E16Y | 2.59 |
| E16R | 1.77 |
| E16I | 2.14 |
| E16L | 3.46 |
| E16H | 3.15 |
| E16F | 2.19 |
| E16A | 2.25 |

| Variant | protein stability index |
| --- | --- |
| E14Q | 1.72 |
| E14N | 2.37 |
| E14G | 2.11 |
| E14K | 1.39 |
| E14I | 1.23 |
| E14V | 1.86 |
| E14P | 1.84 |
| E14H | 2.1 |
| E14A | 2.14 |
| E14D | 2.36 |
| E14W | 1.46 |
| D20W | 1.79 |
| D20C | 2.49 |
| D20Q | 1.86 |
| D20V | 1.86 |
| D20K | 2.01 |
| D20Y | 1.76 |
| D20N | 2.05 |
| D20E | 1.92 |
| D20L | 1.67 |
| D20T | 2.18 |
| D20S | 2.29 |
| D20I | 1.74 |
| D20H | 1.91 |

| Variant | protein stability index |
| --- | --- |
| D20G | 1.37 |
| S17Y | 2.24 |
| S17M | 2.14 |
| S17C | 1.68 |
| S17L | 1.98 |
| S17I | 1.83 |
| S17Q | 2.35 |
| S17A | 2.38 |
| S17K | 2 |
| S17V | 2.25 |
| S17P | 2.34 |
| S17T | 2.42 |
| S17R | 2.25 |
| S17G | 3.01 |
| S17F | 1.87 |
| S17E | 2.85 |
| E7L | 2.83 |
| E7P | 2.46 |
| E7K | 2.78 |
| E7F | 2.33 |
| E7Q | 3.27 |
| E7H | 2.57 |
| E7V | 2.3 |
| E7A | 2.27 |

| Variant | protein stability index |
| --- | --- |
| E7D | 3.69 |
| E7S | 2.82 |
| E7M | 2.49 |
| E7C | 2.69 |
| E7I | 2.32 |
| E7Y | 2.2 |
| E7W | 1.63 |
| E7N | 2.67 |
| E7G | 2.43 |
| Y12V | 2.16 |
| Y12H | 2.44 |
| Y12N | 2.62 |
| Y12L | 2.14 |
| Y12S | 2.52 |
| Y12P | 3.15 |
| Y12A | 2.28 |
| Y12Q | 2.23 |
| Y12K | 2.39 |
| Y12T | 1.82 |
| Y12M | 1.97 |
| Y12W | 1.8 |
| V21K | 2.99 |
| V21D | 2.53 |
| V21A | 2.3 |

| Variant | protein stability index |
| --- | --- |
| V21F | 2.12 |
| V21G | 2.56 |
| V21S | 2.46 |
| V21R | 2.27 |
| V21M | 2.19 |
| V21L | 2.07 |
| V21Y | 2.48 |
| V21C | 2.41 |
| V21N | 2.35 |
| V21E | 2.43 |
| V21W | 2.04 |
| E22K | 2.21 |
| E22Y | 1.63 |
| E22C | 2.06 |
| E22W | 2.28 |
| E22S | 2.31 |
| E22I | 2.03 |
| E22F | 1.6 |
| E22H | 2.06 |
| E22T | 2.07 |
| E22N | 2.14 |
| E22Q | 2.61 |
| E22G | 2.31 |
| E22A | 2.2 |

| Variant | protein stability index |
| --- | --- |
| V23H | 2.62 |
| V23I | 2.08 |
| V23P | 2.87 |
| V23Y | 2.78 |
| V23M | 2.48 |
| V23N | 3.18 |
| V23L | 2.05 |
| V23C | 2.47 |
| V23F | 2.45 |
| V23S | 2.53 |
| V23A | 2.68 |
| V23Q | 2.8 |
| V23W | 1.98 |
| V23E | 2.33 |
| V23G | 2.39 |
| D19L | 1.76 |
| D19N | 2.26 |
| D19K | 2.3 |
| D19C | 1.4 |
| D19E | 2.35 |
| D19F | 2.1 |
| D19I | 1.76 |
| D19S | 2.08 |
| D19H | 2.25 |

| Variant | protein stability index |
| --- | --- |
| D19P | 1.57 |
| D19G | 2.09 |
| D19T | 2.19 |
| D19W | 1.41 |
| D19V | 2.07 |
| P8D | 3.18 |
| P8N | 2.69 |
| P8C | 1.73 |
| P8A | 2.09 |
| P8R | 1.86 |
| P8F | 1.94 |
| P8G | 2.56 |
| P8V | 2.19 |
| P8L | 1.67 |
| P8Y | 1.76 |
| P8W | 2.27 |
| P8Q | 2.55 |
| P8H | 2.12 |
| P8E | 3.1 |
| P8T | 2.55 |
| P8M | 2.32 |
| Q9Y | 2.66 |
| Q9A | 2.46 |
| Q9H | 2.13 |

| Variant | protein stability index |
| --- | --- |
| Q9C | 1.93 |
| Q9E | 3.13 |
| Q9R | 1.41 |
| Q9L | 2.14 |
| Q9M | 1.88 |
| Q9T | 2.29 |
| Q9N | 2.17 |
| Q9V | 1.74 |
| Q9P | 2.03 |
| Q9S | 2.4 |
| Q9F | 2.19 |
| C2K | 4.17 |
| C2T | 3.22 |
| C2R | 4.17 |
| C2N | 2.91 |
| C2V | 2.1 |
| C2Q | 2.51 |
| C2E | 4.91 |
| C2I | 2.65 |
| C2D | 4.96 |
| C2M | 3.62 |
| A3T | 2.45 |
| A3H | 2.59 |
| A3K | 3.07 |

| Variant | protein stability index |
| --- | --- |
| A3Q | 2.28 |
| A3L | 2.78 |
| A3S | 2.78 |
| A3I | 2.51 |
| A3N | 2.74 |
| A3D | 3.48 |
| A3F | 2.3 |
| A3R | 1.75 |
| A3G | 2.01 |
| A3M | 3.1 |
| S18I | 1.88 |
| S18G | 2.39 |
| S18D | 2.6 |
| S18Q | 2.38 |
| S18F | 1.49 |
| S18V | 2.1 |
| S18C | 2.13 |
| S18R | 2 |
| S18E | 2.54 |
| S18L | 2.23 |
| S18P | 2.3 |
| S18A | 2.54 |
| S18N | 2.33 |
| S18M | 2.34 |

| Variant | protein stability index |
| --- | --- |
| S18Y | 2.29 |
| F11D | 4.38 |
| F11G | 3.43 |
| F11L | 3.56 |
| F11A | 3.01 |
| F11V | 3.38 |
| F11N | 3.48 |
| F11H | 2.71 |
| F11M | 3.28 |
| F11I | 2.75 |
| F11C | 3.41 |
| F11S | 3.54 |
| F11W | 2.63 |
| F11R | 2.89 |
| F11P | 3.44 |
| F11K | 3.96 |
| F11Y | 1.88 |
| Y1N | 5.01 |
| Y1F | 1.91 |
| Y1W | 3.66 |
| Y1G | 4.56 |
| Y1A | 4.42 |
| Y1C | 4.28 |
| Y1P | 4.76 |

| Variant | protein stability index |
| --- | --- |
| Y1Q | 4.45 |
| Y1S | 4.19 |
| Y1D | 5.04 |
| Y1R | 4.92 |
| Y1I | 3.45 |
| Y1E | 4.99 |
| Y1T | 5.11 |
| Y1K | 4.66 |
| Y1V | 4.2 |
| Y1H | 4.36 |
| L24S | 2.66 |
| L24I | 2.73 |
| L24A | 2.45 |
| L24P | 2.69 |
| L24Y | 1.76 |
| L24T | 2.11 |
| L24R | 2.78 |
| L24W | 1.85 |
| L24N | 2.36 |
| L24C | 2.9 |
| L24H | 2.15 |
| L24M | 2.65 |
| L24F | 2.43 |
| L24Q | 1.86 |

| Variant | protein stability index |
| --- | --- |
| L24K | 3 |
| L24E | 2.62 |
| L24G | 2.54 |
| L5P | 2.15 |
| L5V | 2.4 |
| L5W | 1.28 |
| L5G | 2.99 |
| L5S | 2.04 |
| L5H | 2.72 |
| L5A | 2.62 |
| L5Y | 3.33 |
| L5F | 2.29 |
| L5D | 3.42 |
| L5I | 1.98 |
| L5N | 3.31 |
| L5Q | 2.63 |
| T15H | 2.12 |
| T15N | 2.08 |
| T15E | 2.72 |
| T15Y | 1.96 |
| T15Q | 2.43 |
| T15A | 2.63 |
| T15C | 2.16 |
| T15L | 1.75 |

| Variant | protein stability index |
| --- | --- |
| T15W | 1.81 |
| T15M | 1.91 |
| T15S | 2.54 |
| T15G | 2.27 |
| T15R | 2.9 |
| C6V | 3.3 |
| C6Y | 2.29 |
| C6R | 2.21 |
| C6I | 2.88 |
| C6S | 2.18 |
| C6G | 1.52 |
| C6A | 2.95 |
| C6M | 2.79 |
| C6K | 2.93 |
| C6N | 2.36 |
| C6Q | 3.02 |
| C6H | 2.32 |
| C6W | 1.77 |
| W10T | 4.34 |
| W10H | 3.52 |
| W10L | 3.04 |
| W10R | 4.74 |
| W10V | 3.35 |
| W10M | 3.51 |

| Variant | protein stability index |
| --- | --- |
| W10D | 4.5 |
| W10A | 4.04 |
| W10Y | 2.71 |
| W10I | 3.45 |
| W10G | 4.02 |
| W10P | 3.92 |
| W10E | 3.98 |
| K4E | 4.61 |
| K4I | 2.29 |
| K4M | 2.48 |
| K4W | 2.08 |
| K4P | 2.43 |
| K4S | 2.01 |
| K4Q | 3.46 |
| K4D | 3.69 |
| K4L | 2.71 |
| K4V | 3.05 |
| K4F | 2.56 |
| K4A | 2.54 |
| K4G | 1.98 |
| K4N | 4.3 |
| K4Y | 3.2 |
